According to the supplement of paper PMC9876800:

Tested on: peptide library, one residue held at a place counted from the S/T acceptor
Experiment: relative phosphorylation of the sub-library (ratio to the mean residue at this position); higher = residue favoured
Details: human
Method in brief: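 Relative sub-library phosphorylation is a ratio to the mean residue at the same position. Purified recombinant kinases were incubated under kinase-specific conditions with biotinylated degenerate peptide sub-libraries, each fixing one residue at one position around a central Ser/Thr, using 50 μM peptide and 50 μM ATP spiked with γ-32P-ATP for 90 min. Spots captured on streptavidin membranes were phosphorimaged and quantified by densitometry.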

Chain of AKT1, construct: aa109-end (P31749 109-480, looked up): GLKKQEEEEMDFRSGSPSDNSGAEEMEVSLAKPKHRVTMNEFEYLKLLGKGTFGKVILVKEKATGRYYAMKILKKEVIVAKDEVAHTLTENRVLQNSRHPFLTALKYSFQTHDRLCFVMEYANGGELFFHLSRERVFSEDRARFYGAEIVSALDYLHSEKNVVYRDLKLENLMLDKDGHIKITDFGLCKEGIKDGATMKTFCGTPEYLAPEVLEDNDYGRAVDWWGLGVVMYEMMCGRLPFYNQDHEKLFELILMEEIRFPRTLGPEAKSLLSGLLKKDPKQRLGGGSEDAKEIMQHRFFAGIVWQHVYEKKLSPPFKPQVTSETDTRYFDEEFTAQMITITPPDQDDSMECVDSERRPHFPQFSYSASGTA
Chain of DAPK3, construct: aa1-404 (O43293 1-404, looked up): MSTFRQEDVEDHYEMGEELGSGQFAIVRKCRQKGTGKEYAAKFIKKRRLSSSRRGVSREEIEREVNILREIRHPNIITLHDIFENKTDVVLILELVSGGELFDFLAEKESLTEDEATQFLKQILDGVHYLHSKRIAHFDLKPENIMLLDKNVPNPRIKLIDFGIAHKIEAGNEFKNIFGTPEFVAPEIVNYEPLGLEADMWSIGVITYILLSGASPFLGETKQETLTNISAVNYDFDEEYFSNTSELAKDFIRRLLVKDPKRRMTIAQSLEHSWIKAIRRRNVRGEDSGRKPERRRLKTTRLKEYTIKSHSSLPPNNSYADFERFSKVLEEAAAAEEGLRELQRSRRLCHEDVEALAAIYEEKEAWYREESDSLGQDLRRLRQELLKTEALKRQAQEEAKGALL

DAPK3, construct: aa1-404 (from UniProt O43293)
relative phosphorylation
Details | at +1 | at +2 | at +3 | at +4 | at -1 | at -2 | at -3 | at -4 | at -5
A fixed | 0.877 | 0.903 | 0.724 | 0.839 | 0.73 | 1.06 | 0.654 | 1 | 0.953
D fixed | 1.61 | 0.84 | 0.753 | 0.791 | 0.823 | 0.448 | 0.447 | 0.844 | 0.79
E fixed | 1.69 | 0.976 | 0.719 | 0.706 | 0.601 | 0.398 | 0.393 | 0.85 | 0.666
F fixed | 0.52 | 0.932 | 1.02 | 1.14 | 0.667 | 0.338 | 0.412 | 0.759 | 0.583
G fixed | 1.15 | 0.661 | 0.89 | 0.939 | 0.888 | 0.74 | 0.636 | 0.947 | 1.03
H fixed | 0.825 | 1.01 | 1.04 | 1.51 | 1.29 | 1.24 | 0.835 | 1.1 | 1.17
I fixed | 0.786 | 0.873 | 1.95 | 0.95 | 0.58 | 0.313 | 0.311 | 0.645 | 0.73
K fixed | 0.595 | 0.789 | 0.685 | 0.712 | 1.48 | 1.33 | 2.51 | 1.65 | 1.59
L fixed | 0.707 | 1.44 | 1.63 | 0.902 | 0.946 | 0.361 | 0.365 | 0.677 | 0.927
M fixed | 1.15 | 1.5 | 1.08 | 0.984 | 0.943 | 0.415 | 0.422 | 0.871 | 0.912
N fixed | 1.33 | 1.03 | 0.776 | 1 | 1.69 | 0.952 | 0.548 | 0.85 | 0.891
P fixed | 0.309 | 0.9 | 0.78 | 0.885 | 1.06 | 0.406 | 0.703 | 0.854 | 0.959
Q fixed | 2.62 | 1.25 | 0.804 | 0.797 | 1.15 | 0.989 | 0.769 | 1.04 | 0.942
R fixed | 0.811 | 1.13 | 0.942 | 1.03 | 1.71 | 6.46 | 6.61 | 2.25 | 2.36
V fixed | 0.807 | 0.827 | 1.41 | 0.927 | 0.698 | 0.397 | 0.294 | 0.844 | 0.699
W fixed | 0.638 | 0.941 | 0.984 | 1.61 | 0.753 | 0.755 | 0.634 | 1.02 | 0.776
Y fixed | 0.582 | 1.01 | 0.808 | 1.28 | 1 | 0.401 | 0.462 | 0.803 | 1.01
pThr fixed | 1.83 | 1.01 | 0.854 | 1.04 | 0.695 | 0.53 | 0.633 | 0.84 | 0.973
pTyr fixed | 1.19 | 1.02 | 1.35 | 1.08 | 0.957 | 0.623 | 0.605 | 0.929 | 1.1

AKT1, construct: aa109-end (from UniProt P31749)
relative phosphorylation
Details | at +1 | at +2 | at +3 | at +4 | at -1 | at -2 | at -3 | at -4 | at -5
A fixed | 0.492 | 0.908 | 0.834 | 0.83 | 0.739 | 0.942 | 0.543 | 0.894 | 0.938
D fixed | 0.294 | 0.547 | 0.499 | 0.752 | 0.726 | 0.143 | 0.165 | 0.567 | 0.639
E fixed | 0.292 | 0.394 | 0.537 | 0.53 | 0.387 | 0.132 | 0.164 | 0.703 | 0.639
F fixed | 2.31 | 0.76 | 1.03 | 0.662 | 0.832 | 0.504 | 0.271 | 0.734 | 0.929
G fixed | 0.657 | 1.07 | 1.21 | 1.01 | 1.32 | 0.592 | 0.453 | 1.03 | 1.01
H fixed | 0.791 | 1.56 | 1.3 | 1.13 | 1.18 | 0.839 | 0.837 | 1.02 | 1.11
I fixed | 1.7 | 1.02 | 0.838 | 0.646 | 0.337 | 0.414 | 0.245 | 0.66 | 0.74
K fixed | 0.854 | 1.3 | 1.56 | 1.95 | 1.78 | 2.18 | 2.33 | 1.85 | 1.61
L fixed | 1.22 | 1.13 | 0.826 | 0.786 | 0.978 | 1.02 | 0.295 | 0.75 | 0.789
M fixed | 1.69 | 0.787 | 0.839 | 0.773 | 1.13 | 0.498 | 0.282 | 0.9 | 0.859
N fixed | 0.924 | 1.08 | 1.06 | 1.1 | 1.44 | 0.444 | 0.332 | 0.804 | 0.795
P fixed | 0.36 | 0.733 | 0.833 | 1.57 | 1.04 | 0.303 | 0.507 | 0.91 | 1.03
Q fixed | 1.08 | 0.903 | 0.964 | 1.25 | 1.01 | 0.546 | 0.56 | 0.91 | 0.835
R fixed | 0.952 | 1.95 | 1.94 | 1.84 | 1.75 | 7.28 | 9.07 | 2.75 | 2.58
V fixed | 1.4 | 1.11 | 0.782 | 0.702 | 0.449 | 0.44 | 0.238 | 0.757 | 0.727
W fixed | 1.12 | 0.831 | 0.963 | 0.884 | 0.663 | 0.332 | 0.352 | 0.972 | 0.893
Y fixed | 0.853 | 0.913 | 0.979 | 0.593 | 1.24 | 0.392 | 0.355 | 0.785 | 0.877
pThr fixed | 0.455 | 0.493 | 0.573 | 0.668 | 0.301 | 0.348 | 0.322 | 0.767 | 0.724
pTyr fixed | 0.575 | 0.645 | 0.577 | 0.447 | 0.9 | 0.273 | 0.299 | 0.692 | 0.728
